Source: patent US20170021005A1

Biological target: PltB pentamer (B subunit of typhoid toxin, as in the crystal structure) (Salmonella enterica serovar Typhi)
Assay: interface analysis of the crystal structure (computed)

Substance: PltA (subunit of typhoid toxin, as in the crystal structure) (enzyme)
- buried surface: 1660 Å^2
- ΔiG (printed "ÅiG"): -17.7 kcal/mol
